B1: Twist-related protein 1 (Homo sapiens), Q15672 (parent)
chain: MMQDVSSSPVSPADDSLSNSEEEPDRQQPPSGKRGGRKRRSSRRSAGGGAGPGGAAGGGVGGGDEPGSPAQGKRGKKSAGCGGGGGAGGGGGSSSGGGSPQSYEELQTQRVMANVRERQRTQSLNEAFAALRKIIPTLPSDKLSKIQTLKLAARYIDFLYQVLQSDELDSKMASCSYVAHERLSYAFSVWRMEGAWSMSASH

Variants of: B1
Details: with itf2_human TCF4, P15884
Chain of itf2_human TCF4, P15884 (P15884 whole entry): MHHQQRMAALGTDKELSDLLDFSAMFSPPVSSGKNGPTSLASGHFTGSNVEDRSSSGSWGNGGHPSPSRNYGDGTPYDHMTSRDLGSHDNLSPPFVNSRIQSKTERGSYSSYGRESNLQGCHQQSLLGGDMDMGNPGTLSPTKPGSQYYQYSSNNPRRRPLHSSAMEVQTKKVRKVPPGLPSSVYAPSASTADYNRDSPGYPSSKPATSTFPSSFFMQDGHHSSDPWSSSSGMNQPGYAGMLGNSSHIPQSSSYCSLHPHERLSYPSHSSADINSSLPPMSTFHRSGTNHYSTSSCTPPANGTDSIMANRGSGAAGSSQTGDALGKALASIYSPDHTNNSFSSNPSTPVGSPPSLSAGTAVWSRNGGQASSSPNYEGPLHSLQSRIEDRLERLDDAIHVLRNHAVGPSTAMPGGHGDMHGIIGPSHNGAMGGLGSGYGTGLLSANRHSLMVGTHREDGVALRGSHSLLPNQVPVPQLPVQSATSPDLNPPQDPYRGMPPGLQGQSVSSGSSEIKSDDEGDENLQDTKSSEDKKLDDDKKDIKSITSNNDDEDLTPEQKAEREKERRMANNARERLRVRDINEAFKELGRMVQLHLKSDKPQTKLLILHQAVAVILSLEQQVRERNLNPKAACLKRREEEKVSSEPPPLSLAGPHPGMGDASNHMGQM

Effect of a mutation on the interaction, with no effect:
K77R
K73R
K38R

Reference: IntAct's records for PubMed 19534813
